Assays:
Assay in all cases: SPR, Fab over captured mutant LAG-3-Fc
[1] = target: human LAG-3 domain 1-2 Fc fusion, chimeric construct #26 (mutated region AA 157-161) (human) (UniProt P18627)
[2] = target: human LAG-3 domain 1-2 Fc fusion, point mutation #45 R98A (human) (UniProt P18627)
[3] = target: human LAG-3 domain 1-2 Fc fusion, point mutation #35 A88S (human) (UniProt P18627)
[4] = target: human LAG-3 domain 1-2 Fc fusion, point mutation #59 Q117A (human) (UniProt P18627)
Sequence of human LAG-3 domain 1-2 Fc fusion, point mutation #59 Q117A (human) (P18627 23-266 Q117A): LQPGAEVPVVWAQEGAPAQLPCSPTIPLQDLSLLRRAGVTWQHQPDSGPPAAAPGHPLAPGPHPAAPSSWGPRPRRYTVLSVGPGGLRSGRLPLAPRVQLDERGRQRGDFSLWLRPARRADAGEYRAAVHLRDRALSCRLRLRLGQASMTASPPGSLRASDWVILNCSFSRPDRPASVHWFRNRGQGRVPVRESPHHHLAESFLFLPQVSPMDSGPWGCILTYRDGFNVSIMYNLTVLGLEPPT

Sequence of human LAG-3 domain 1-2 Fc fusion, chimeric construct #26 (mutated region AA 157-161) (human) (P18627 other isoform, or with tags, fused parts or gaps mutant): as the sequence (P18627 23-266 Q117A) above, with A95Q, A135D, L136F, R139S counted along it
Sequence of human LAG-3 domain 1-2 Fc fusion, point mutation #45 R98A (human) (P18627 23-266 R98A): as the sequence (P18627 23-266 Q117A) above, with R76A, A95Q counted along it
Sequence of human LAG-3 domain 1-2 Fc fusion, point mutation #35 A88S (human) (P18627 23-266 A88S): as the sequence (P18627 23-266 Q117A) above, with A66S, A95Q counted along it

KD mutant/KD wild type [1]: 0.9 fold | KD mutant/KD wild type [2]: 0.9 fold | KD mutant/KD wild type [3]: 3.5 fold | KD mutant/KD wild type [4]: 0.8 fold
Substance: Fab fragment of 25F7-Lag3.5 analogue

Source: patent US20220363757A1
